Source: the supplement of paper PMC12636428

tested on: Saccharomyces cerevisiae; experiment: transcriptional activation domain activity (GFP:mCherry ratio, weighted mean of sorted bins, harmonized to initial dataset scale) (arbitrary fluorescence ratio units); higher = stronger transcriptional activation; conditions: beta-estradiol 1 µM; induction time 4 h
In short: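 The listed activation activity is a read-weighted mean of bin median fluorescence, averaged across barcodes and linearly mapped onto the initial dataset scale. Barcoded tiles, fused to an estradiol-inducible synthetic transcription factor, were integrated at URA3 in yeast diploids bearing a GFP reporter. Cells were held 4 hours at 30 °C in SC with 1 uM beta-estradiol, sorted into 8 GFP:mCherry bins, and sequenced, and tiles with fewer than 50 reads were excluded.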

| Sequence | transcriptional activation domain activity |
| --- | --- |
| LHEQLESLMLRRLKRDVLTSLPTKSERILRVEMSALQTHFYKNILTKNFQALV | 74100 |
| FRLVPFVLWPPFTRRQTDELYLFSWSFLALIWFFIWSLVQFPIVLTVLLSLVF | 52000 |
| SLFLLVVSINDVQTINFFYFVTDYGSWLEIGTSISHFCIAELFIIFTICLFWL | 37800 |
| EGKPVAAEGVKDSWDASSDEEGSNPAPAPAPAAKAKPSQKANGTHVPISESQT | 40500 |
| PLVRWMLDYVINHGEIVHSHPSIRTLATSLIDHPYFLSFICSSFFIEPRGLSG | 34800 |
| MLAYRSQQGWSEGDFLACRWFFSFFFPLFLPLSPPSFLCPFSFLFLFFLLLHL | 45300 |
| GSTQAVDLIAYGGYKFVGVITTLISGFEFLHLGRSIYTMVFLYSFLSNAFFLL | 63600 |
| EILHLMVDRDLFLLLAIDGIMCLATSFGFLLQKAIVHDCLTWNGSGWIIQSLW | 68500 |
| TLGFVVDRYFRVKNFVPEPFWTIKVMHHKDGKKVNFNWARHRLFDRMSVIILY | 64300 |
| SKQAGVGGEDEGEEDVPEDFGHSDNIRKKLLEVLGRDRRDRVLSSLYIVRADG | 43800 |
| NCSFIFLMLNCILAAFCFYNLSSIMNGLVYFDQFSLIPPLHLGLVTLGMCVLL | 46400 |
| LVPWRPQKVLWLKVFYLLTRYLAFVDIPINLYSYLGFGISLPACQVLFSWYCW | 56100 |
| SKAGLILVIRRQGNEIICGAYRNLGFKMLWKLYVKSLFDVMGQWHEVYATSKP | 64000 |
| SSDEEEEPRPKGKGKGKAAVVKAKPKPVAEKGNNAGGKRKRDADSEADGGAAK | 44000 |
| VIHTTAKPYKLHFSNTLLVSTVGLLALLVTTMVFVPWNNYYLPRKWGVFLICF | 42700 |
| EPAAEGAAGADKPAEEAKPAEDKPAETKPEETAEGAKTEETPAPAESAAAPAA | 37800 |
| LYLLIFFPVLLWRYLCIGLDSVLCCHIGFHFPYFMCYFFAIMSVSRSFFIHVY | 67200 |

| Sequence | transcriptional activation domain activity |
| --- | --- |
| MILVQLYIYHHFLNYRCLLHVILFRLKLILPSSSLIFVLGSVESSGNHGTSYD | 49200 |
| EAVKKSAERRDSATKSTSPAPAKEEKKEEGKKPEKKEAKPDDKKGEEAGEDKG | 10800 |
| LSSLPPSAPPFPPPSPLPPPLCFPLPPLFPPFLPSLSFPLSPPPSHFPFPLIP | 27100 |
| YTRQLALGCVTRLLWTYLFRCTESTVIAFKKLDGIIKTLFPPFRRTIYPSETP | 61400 |
| IGMGLDAMLILSRLSRFIRIACVVFWWPGFAVFIAACKSLCLLLHFRDVRELR | 63000 |
| PIHAVYLFHLISSTFLLKYIYTYRFYFIFFLPFFLIWILCAAYWWLFFTHHIP | 54600 |
| FQLWKSLNCAYSSVQVTSQGFSIGILFWTLLEYVLHRFLFHLDKLLPDHPIAL | 63900 |
| MALPKDRDEEKEDEKDNAPKKGKRGPRKRVSQACDRCRTRKDKCDGKKPSCST | 20800 |
| RARCIPSAPTRRPLTRSTSTCRRPPRTTGSCWTSSRPSSTPKTSSSAAKPAPC | 46200 |
| GKEKNHGRGERNGERTKAKGEGRGEEDSQRRGRRRESKERGRRRGGEPEETKG | 49600 |
| TPEFHGQADVDTGILTLKKDEDIRDHPDAARFAEESKAARITKRGAREGLEHV | 22000 |
| ESSSSTGAEEKKKKKKSSKDKKRKAEDEDDATDGAEEKKSKKVKASEDEPARK | 14100 |
| LITIPINYTVYIFVLFPFYVLSGTLCVGYYFHSYSPEFWLLRAWDFFFCFIPM | 74300 |
| MVFGHWCVSRLSHNSQILFLLTMLSFPVCENFFGFICNFIILLFARRTLFFVL | 59500 |
| MSAVCMFLRNRALFIHIFSVALTLFHVGAFQLLHCNCAYGFLVWGFLGCSLSL | 78500 |
| MEQTNKEDSGSDTQACPICDAPAVNRCSRCASVYYCSQEHQKEVRYESPSNAL | 49900 |
| SASSKNGDKPKTVRKKGGEPEVSKESTPKPRTTARNRKGAKQEEAKNKTITGR | 41300 |
